Residue numbers refer to the chain shown, from its start.

We go through 41 molecules from patent US20260274985A1 (MYTHIC THERAPEUTICS, published 2026).

Experiment [1] deals with T1, Human TROP2 Protein, His Tag (Acro Biosystems) (human, UniProt P09758 27-274).
T1 construct: not shown: His tag
T1 sequence (looked up): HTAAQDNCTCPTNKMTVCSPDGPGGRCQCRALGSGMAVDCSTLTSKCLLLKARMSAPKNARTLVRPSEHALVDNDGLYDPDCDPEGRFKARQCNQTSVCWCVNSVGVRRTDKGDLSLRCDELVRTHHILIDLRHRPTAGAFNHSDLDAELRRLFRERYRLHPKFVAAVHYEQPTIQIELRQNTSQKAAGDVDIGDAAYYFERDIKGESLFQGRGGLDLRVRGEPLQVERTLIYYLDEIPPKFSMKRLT
Kind of experiment: BLI (Octet) [1/2].

Experiment [2] addresses T2, Human TROP2 Protein, His Tag (Acro Biosystems) (human, UniProt P09758 27-274).
T2 construct: Soluble analyte of the Octet assay; also called TACSTD2; not shown: His tag
T2 sequence (looked up): T1 sequence (looked up)
Kind of experiment: BLI (Octet).

B1: MYT12299 (antibody, V domains shown)
VH: QVQLQQSGSELKKPGASVKVSCKASGYTFTNHGMNWVKQAPGQGLKWMGWINTYTGEPTYTDDFHGRFAFSLDTSVSTAYLQISSLKADDTAVYFCARGGFGSSYWYFDVWGQGSLVTVSS
VL: DIQLTQSPSSLSASVGDRVSITCKASQDVSIAVAWYQQKPGKAPKLLIYSASYRYTGVPDRFSGSGSGTDFTLTISSLQPEDFAVYYCQQHYITPLTFGAGTKVEIK
notes: sacituzumab VH 32, 65 -> H
As for B1, the binding result in experiment [1] is listed as “binds”.

B2: MYT13176 (antibody, V domains shown)
VH: B1 VH with H65K
VL: B1 VL with A51H
notes: Sacituzumab HC-LC pairing variant; IgG
On to B2, for which, in experiment [2], the binding result is reported as “binds”.

B3: MYT12304 (antibody, V domains shown)
VH: B1 VH with H32Y, G33H, F64H, H65K
VL: B1 VL
notes: sacituzumab VH 33, 64 -> H
As to B3, in experiment [1], the binding result is on record as “binds”.

B4: MYT12308 (antibody, V domains shown)
VH: B1 VH with H32Y, Y60H, D63H, H65K
VL: B1 VL
notes: sacituzumab VH 60, 63 -> H
For B4, the binding result in experiment [1] was “binds”.

B5: MYT13174 (antibody, V domains shown)
VH: B1 VH with H32Y
VL: B1 VL with V33H
notes: as for B2
In the case of B5, the binding result in experiment [2] is recorded as “binds”.

B6: MYT13161 (antibody, V domains shown)
VH: B1 VH with H32Y, G33H, H65K
VL: B1 VL with S30H
notes: as for B2
B6: the binding result in experiment [2] is listed as “binds”.

B7: MYT13184 (antibody, V domains shown)
VH: B1 VH with H65K
VL: B1 VL with S52H
notes: as for B2
On to B7, for which, in experiment [2], the binding result is recorded as “binds”.

B8: MYT13178 (antibody, V domains shown)
VH: B1 VH with H32Y, Y60H, H65K
VL: B1 VL with A51H
notes: as for B2
As for B8, the binding result in experiment [2] is given as “binds”.

B9: MYT13180 (antibody, V domains shown)
VH: B1 VH with H32Y, D63H, H65K
VL: B1 VL with A51H
notes: as for B2
B9: the binding result in experiment [2] is given as “binds”.

B10: MYT13164 (antibody, V domains shown)
VH: B1 VH with H32Y, D63H, H65K
VL: B1 VL with S30H
notes: as for B2
Regarding B10, the binding result in experiment [2] is on record as “binds”.

B11: MYT13183 (antibody, V domains shown)
VH: B1 VH with H32Y, H65K, G66H
VL: B1 VL with A51H
notes: as for B2
As to B11, the binding result in experiment [2] is “binds”.

B12: MYT13186 (antibody, V domains shown)
VH: B1 VH with H32Y, Y60H, H65K
VL: B1 VL with S52H
notes: as for B2
Take B12: the binding result in experiment [2] is “binds”.

B13: MYT13165 (antibody, V domains shown)
VH: B1 VH with H32Y, F64H, H65K
VL: B1 VL with S30H
notes: as for B2
Turning to B13, in experiment [2], the binding result is “binds”.

B14: MYT13200 (antibody, V domains shown)
VH: B1 VH with H65K
VL: B1 VL with Q89H
notes: as for B2
For B14, the binding result in experiment [2] is given as “binds”.

B15: MYT12311 (antibody, V domains shown)
VH: B1 VH with H32Y, Y60H, H65K, G66H
VL: B1 VL
notes: sacituzumab VH 60, 66 -> H
B15: the binding result in experiment [1] is recorded as “binds”.

B16: MYT13166 (antibody, V domains shown)
VH: B1 VH with H32Y
VL: B1 VL with S30H
notes: as for B2
Turning to B16, the binding result in experiment [2] is given as “binds”.

B17: MYT13169 (antibody, V domains shown)
VH: B1 VH with H32Y, G33H, H65K
VL: B1 VL with V33H
notes: as for B2
For B17, in experiment [2], the binding result was “binds”.

B18: MYT13163 (antibody, V domains shown)
VH: B1 VH with H32Y, D62H, H65K
VL: B1 VL with S30H
notes: as for B2
On to B18, for which, in experiment [2], the binding result was “binds”.

B19: MYT13182 (antibody, V domains shown)
VH: B1 VH with H32Y
VL: B1 VL with A51H
notes: as for B2
Regarding B19, in experiment [2], the binding result is recorded as “binds”.

B20: MYT13177 (antibody, V domains shown)
VH: B1 VH with H32Y, G33H, H65K
VL: B1 VL with A51H
notes: as for B2
For the molecule B20, the binding result in experiment [2] is “binds”.

B21: MYT12305 (antibody, V domains shown)
VH: B1 VH with H32Y, G33H
VL: B1 VL
notes: sacituzumab VH 33, 65 -> H
As to B21, the binding result in experiment [1] was “binds”.

B22: MYT12313 (antibody, V domains shown)
VH: B1 VH with H32Y, D62H, F64H, H65K
VL: B1 VL
notes: sacituzumab VH 62, 64 -> H
Consider B22, for which the binding result in experiment [1] is recorded as “binds”.

B23: MYT12303 (antibody, V domains shown)
VH: B1 VH with H32Y, G33H, D63H, H65K
VL: B1 VL
notes: sacituzumab VH 33, 63 -> H
Consider B23, for which, in experiment [1], the binding result is “binds”.

B24: MYT12301 (antibody, V domains shown)
VH: B1 VH with H32Y, G33H, Y60H, H65K
VL: B1 VL
notes: sacituzumab VH 33, 60 -> H
In the case of B24, in experiment [1], the binding result was “binds”.

B25: MYT12300 (antibody, V domains shown)
VH: B1 VH with H65K, G66H
VL: B1 VL
notes: sacituzumab VH 32, 66 -> H
In the case of B25, in experiment [1], the binding result was “binds”.

B26: MYT13168 (antibody, V domains shown)
VH: B1 VH with H65K
VL: B1 VL with V33H
notes: as for B2
For B26, the binding result in experiment [2] is given as “binds”.

B27: MYT13188 (antibody, V domains shown)
VH: B1 VH with H32Y, D63H, H65K
VL: B1 VL with S52H
notes: as for B2
With B27, in experiment [2], the binding result is “binds”.

B28: MYT13173 (antibody, V domains shown)
VH: B1 VH with H32Y, F64H, H65K
VL: B1 VL with V33H
notes: as for B2
As for B28, in experiment [2], the binding result is recorded as “binds”.

B29: MYT12312 (antibody, V domains shown)
VH: B1 VH with H32Y, D62H, D63H, H65K
VL: B1 VL
notes: sacituzumab VH 62, 63 -> H
Take B29: in experiment [1], the binding result was “binds”.

B30: MYT12309 (antibody, V domains shown)
VH: B1 VH with H32Y, Y60H, F64H, H65K
VL: B1 VL
notes: sacituzumab VH 60, 64 -> H
For the molecule B30, the binding result in experiment [1] is on record as “binds”.

B31: MYT13181 (antibody, V domains shown)
VH: B1 VH with H32Y, F64H, H65K
VL: B1 VL with A51H
notes: as for B2
In the case of B31, the binding result in experiment [2] was “binds”.

B32: MYT12307 (antibody, V domains shown)
VH: B1 VH with H32Y, Y60H, D62H, H65K
VL: B1 VL
notes: sacituzumab VH 60, 62 -> H
Turning to B32, the binding result in experiment [1] was “binds”.

B33: MYT13170 (antibody, V domains shown)
VH: B1 VH with H32Y, Y60H, H65K
VL: B1 VL with V33H
notes: as for B2
Consider B33, for which the binding result in experiment [2] is listed as “binds”.

B34: MYT13179 (antibody, V domains shown)
VH: B1 VH with H32Y, D62H, H65K
VL: B1 VL with A51H
notes: as for B2
B34: in experiment [2], the binding result is “binds”.

B35: MYT13175 (antibody, V domains shown)
VH: B1 VH with H32Y, H65K, G66H
VL: B1 VL with V33H
notes: as for B2
On to B35, for which the binding result in experiment [2] was “binds”.

B36: MYT13167 (antibody, V domains shown)
VH: B1 VH with H32Y, H65K, G66H
VL: B1 VL with S30H
notes: as for B2
In the case of B36, the binding result in experiment [2] was “binds”.

B37: MYT13171 (antibody, V domains shown)
VH: B1 VH with H32Y, D62H, H65K
VL: B1 VL with V33H
notes: as for B2
With B37, the binding result in experiment [2] is “binds”.

B38: MYT13172 (antibody, V domains shown)
VH: B1 VH with H32Y, D63H, H65K
VL: B1 VL with V33H
notes: as for B2
As for B38, the binding result in experiment [2] is listed as “binds”.

B39: MYT13162 (antibody, V domains shown)
VH: B1 VH with H32Y, Y60H, H65K
VL: B1 VL with S30H
notes: as for B2
On to B39, for which the binding result in experiment [2] is recorded as “binds”.

B40: MYT13189 (antibody, V domains shown)
VH: B1 VH with H32Y, F64H, H65K
VL: B1 VL with S52H
notes: as for B2
For the molecule B40, the binding result in experiment [2] is recorded as “binds”.

B41: MYT13185 (antibody, V domains shown)
VH: B1 VH with H32Y, G33H, H65K
VL: B1 VL with S52H
notes: as for B2
With B41, the binding result in experiment [2] is reported as “binds”.
